Laboratory results from patent US20190315864A1 (SUZHOU ALPHAMAB, published 2019).
Substitutions are numbered along the chain they refer to.

B1: CTLA4 heavy chain single domain antibody No. C29 (VHH)
VHH: QVQLQESGGGSVQAGGSLRLSCAVSGYTYSGYCMGWFRQAPGKEREGVAAISRGDGSPGYADSVKGRFTISQDNAKNTLYLQMNSLKPEDTAMYYCAADVIPTETCSYGSWSGPNGYWGQGTQVTVSS
notes: Camel VHH expressed in E. coli (PET32b), nickel-purified
B2: CTLA4 heavy chain single domain antibody No. C16 (VHH)
VHH: QVQLQESGGGSVQAGGSLTLSCAASGYTGDLVAWFRQTPGKEREGVAAISRTGLTTYYADSVKGRFTISQDTAKNTGYLQMNSMKPEDTAMYYCVAGWHVGGTWYKTSSYDYWGQGTQVTVSS
notes: as for B1
B3: CTLA4 heavy chain single domain antibody No. J69 (VHH)
VHH: QVQLQESGGGLVQPGGSLRLSCAASGFTLSSYSMTWLRQAPGKGLEWVSTINSGGSTSYADSVKGRFAISRDNAKNTLYLQLNSLEIEDTGMYYCQGGLTRGQGTQVTVSS
notes: as for B1
B4: CTLA4 heavy chain single domain antibody No. 116 (VHH)
VHH: B3 VHH with A23E, L29F, S33T
notes: as for B1
B5: CTLA4 heavy chain single domain antibody No. C22 (VHH)
VHH: QVQLQESGGGSVQAGGSLRLSCTVSQHTSRYYYMAWFRQAPGKEREGVASIWTGGGTPGYADSAKGRFTISTDNAKNTIYLQMNSLKPEDTAMYYCAADDRGGRWSLGTMAVGGYKYWGQGTQVTVSS
notes: as for B1
B6: CTLA4 heavy chain single domain antibody No. J78 (VHH)
VHH: B5 VHH with T72A
notes: as for B1
B7: CTLA4 heavy chain single domain antibody No. 119 (VHH)
VHH: QVQLQESGGGSVQAGGSLRLSCAASEYTYHTNCMGWFRQAPGKEREGLAVMNPSGGVTYFADSVKGRFTISRDNAKNTVYLQMNSLKPEDTAMYYCAAGRGRCSGYSGYYNEWGQGTQVTVSS
notes: as for B1
B8: CTLA4 heavy chain single domain antibody No. 128 (VHH)
VHH: QVQLQESGGGSVQAGGSLKLSCAASGYTDYTYNTSCMGWFRQTPGKERERVATVNKVGSTIYADSVKGRFTISKDNVKNTLYLQMNSLKPEDTAMYYCAARGSWSCSQFWGDFGYWGQGTQVTVSS
notes: as for B1
B9: CTLA4 heavy chain single domain antibody No. 138 (VHH)
VHH: QVQLQESGGGSVQAGGSLTLSCAASGYANSNTCMGWFRQAPGKERERVAAISGVGTGTYYADSVKGRFTISRDNGKNTLFLQMNSLKPEDTAMYYCAAAPEGRAWCSRDPSGYNYWGQGTQVTVSS
notes: as for B1

Experiments:
CTLA4-Fc fusion protein [1] = molecular target: T1, CTLA4-Fc fusion protein (human, biotinylated where used as CTLA4-Fc-Biotin (Examples 5.1-5.3)); assay: ELISA, CTLA4-Fc coated, 10 ng VHH/well
T1 construct: expressed in HEK293 cells; also called human CTLA4-Fc protein; CTLA4-Fc antigen protein
Description: (§1) Plates were coated with CTLA4-Fc fusion protein overnight at 4° C. and 10 ng of the heavy chain single-domain antibody obtained in Example 2.1 (the control was a single domain antibody not binding to the CTLA4-Fc protein) was added to each well and allowed to react for 1 hour at room temperature. After washing, primary antibody anti-His tag antibody (purchased from Beijing Kangwei Century Biotechnology Co., Ltd.) was added and reacted for 1 hour at room temperature. After washing, a secondary goat anti-mouse horseradish peroxidase-labeled antibody (Yiqiao Shenzhou, Cat: SSA007200) was added and reacted for 1 hour at room temperature. After washing, chromogenic agent was added and the absorbance was read at 405 nm.

Fc protein = molecular target: T2, Fc protein; assay: ELISA, Fc protein coated, 10 ng VHH/well
T2 construct: Counter-screen for the Fc part of CTLA4-Fc
Description: (§2) Plates were coated with Fc protein overnight at 4° C. and 10 ng of the heavy chain single domain antibody obtained in Example 2.1 was added to each well (control was a single domain antibody against other unrelated targets) and allowed to react for 1 hour at room temperature. After washing, an rabbit anti-human Fc antibody (purchased from Shanghai Pu Xin Biotechnology Co., Ltd.) was added and reacted for 1 hour at room temperature. After washing, goat anti-rabbit horseradish peroxidase labeled antibody (purchased from Shanghai Pu Xin Biotechnology Co., Ltd.) was added and reacted at room temperature for 1 hour. After washing, chromogenic agent was added and the absorbance was read at 405 nm.

CTLA4-Fc fusion protein [2] = molecular target: T1, CTLA4-Fc fusion protein; assay: ELISA OD ratio, value equals OD(CTLA4)/OD(Fc)
Description: as §1, §2

CTLA4-Fc fusion protein [3] = molecular target: T1, CTLA4-Fc fusion protein; assay: ELISA OD ratio, value equals OD(CTLA4)/OD(blank)
Description: as §1

CTLA4-Fc fusion protein [4] = molecular target: T1, CTLA4-Fc fusion protein; assay: competitive ELISA: CD80-Fc-Biotin signal on coated CTLA4-Fc with 500 ng VHH/well; competitor CD80-Fc-Biotin
Description: SA-HRP (purchased from Sigma) was added and allowed to react for 1 hour at room temperature. After adding chromogenic solution, absorbance was read at 405 nm wavelength.

Binder | OD (against CTLA4) (CTLA4-Fc fusion protein [1]) [OD405] | OD (against Fc) (Fc protein) [OD405] | ODa/OD blank (CTLA4-Fc fusion protein [2]) | ODa/ODb (CTLA4-Fc fusion protein [3]) | OD (CTLA4-Fc fusion protein [4]) [OD405]
B1 | 1.51 | 0.085 | 17.8 | 54 | 2.43
B2 | 1.79 | 0.053 | 33.7 | 63.8 | 1.89
B3 | 0.635 | 0.037 | 17.2 | 22.7 | 2.34
B4 | 0.234 | 0.046 | 5.1 | 8.4 | 2.58
B5 | 0.848 | 0.06 | 14.1 | 30.3 | 2.47
B6 | 0.632 | 0.121 | 5.2 | 22.6 | 2.41
B7 | 0.537 | 0.037 | 14.5 | 19.2 | 2.53
B8 | 1.27 | 0.036 | 35.2 | 45.3 | 0.893
B9 | 1.84 | 0.041 | 45 | 65.8 | 1.92
